Assay results as given in patent US20180237527A1 (METIS PRECISION MEDICINE SB S R L, published 2018).

B1: DCD-MvDN30.2 (Dual Constant Domain Fab with the duplicated constant domains swapped reciprocally) (Fab)
heavy: QVQLQQPGTELVKPGASVKLSCKASGYTFTSYWIHWVKQRPGQGLEWIGEINPSSGRTNYNEKFKNKVTVTVDKSSTTAYMQLSNLTSEDSAVYYCASRGYWGQGTTLTVSSASTKGPSVFPLAPSSKSTSGGTAALGCLVKDYFPEPVTVSWNSGALTSGVHTFPAVLQSSGLYSLSSVVTVPSSSLGTQTYICNVNHKPSNTKVDKKVEPKSCTVAAPSVFIFPPSDEQLKSGTASVVCLLNNFYPREAKVQWKVDNALQSGNSQESVTEQDSKDSTYSLSSTLTLSKADYEKHKVYACEVTHQGLSSPVTKSFNRGEC
light: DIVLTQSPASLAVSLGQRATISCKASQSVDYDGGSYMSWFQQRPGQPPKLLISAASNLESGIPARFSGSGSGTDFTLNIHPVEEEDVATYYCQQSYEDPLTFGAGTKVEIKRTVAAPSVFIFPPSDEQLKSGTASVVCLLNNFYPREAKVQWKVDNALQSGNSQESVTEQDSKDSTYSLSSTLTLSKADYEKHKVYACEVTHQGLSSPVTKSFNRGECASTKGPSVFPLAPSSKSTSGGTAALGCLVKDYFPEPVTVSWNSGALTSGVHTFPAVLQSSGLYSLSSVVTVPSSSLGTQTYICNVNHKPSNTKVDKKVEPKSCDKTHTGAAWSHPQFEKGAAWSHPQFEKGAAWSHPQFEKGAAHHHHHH
notes: also called DCD-Fab
B2: chimerized DN30 Fab (MvDN30) (Fab)
heavy: QVQLQQPGTELVKPGASVKLSCKASGYTFTSYWIHWVKQRPGQGLEWIGEINPSSGRTNYNEKFKNKVTVTVDKSSTTAYMQLSNLTSEDSAVYYCASRGYWGQGTTLTVSSASTKGPSVFPLAPSSKSTSGGTAALGCLVKDYFPEPVTVSWNSGALTSGVHTFPAVLQSSGLYSLSSVVTVPSSSLGTQTYICNVNHKPSNTKVDKKVEPKSC
light: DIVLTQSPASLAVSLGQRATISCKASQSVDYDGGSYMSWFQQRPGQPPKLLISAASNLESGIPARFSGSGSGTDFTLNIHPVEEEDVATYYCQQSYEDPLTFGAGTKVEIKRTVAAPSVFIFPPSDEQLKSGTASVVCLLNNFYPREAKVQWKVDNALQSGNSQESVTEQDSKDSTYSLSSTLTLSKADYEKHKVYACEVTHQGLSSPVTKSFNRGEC
notes: also called chimeric MvDN30; chimeric DN30 Fab
B3: DCD-MvDN30.1 (Dual Constant Domain Fab with the duplicated constant domains in tandem) (Fab)
heavy: QVQLQQPGTELVKPGASVKLSCKASGYTFTSYWIHWVKQRPGQGLEWIGEINPSSGRTNYNEKFKNKVTVTVDKSSTTAYMQLSNLTSEDSAVYYCASRGYWGQGTTLTVSSASTKGPSVFPLAPSSKSTSGGTAALGCLVKDYFPEPVTVSWNSGALTSGVHTFPAVLQSSGLYSLSSVVTVPSSSLGTQTYICNVNHKPSNTKVDKKVEPKSCASTKGPSVFPLAPSSKSTSGGTAALGCLVKDYFPEPVTVSWNSGALTSGVHTFPAVLQSSGLYSLSSVVTVPSSSLGTQTYICNVNHKPSNTKVDKKVEPKSCDKTHTGAAWSHPQFEKGAAWSHPQFEKGAAWSHPQFEKGAAHHHHHH
light: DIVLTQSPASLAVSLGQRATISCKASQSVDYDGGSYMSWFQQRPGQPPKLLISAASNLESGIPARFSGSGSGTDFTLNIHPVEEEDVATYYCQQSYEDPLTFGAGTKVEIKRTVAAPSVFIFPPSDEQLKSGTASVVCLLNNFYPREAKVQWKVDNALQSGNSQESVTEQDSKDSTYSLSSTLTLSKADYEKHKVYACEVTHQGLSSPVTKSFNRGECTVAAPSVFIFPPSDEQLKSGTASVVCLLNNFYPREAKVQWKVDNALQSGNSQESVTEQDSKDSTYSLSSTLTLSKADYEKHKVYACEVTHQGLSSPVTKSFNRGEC
notes: also called DCD-Fab

What follows are binders tested against T1, Met-Fc chimera (human, UniProt P08581 25-932) (assay: ELISA, Met-Fc chimera in solid phase, antibody fragment in liquid phase, anti-strepTAG detection).
T1 construct: extracellular domain;domain: Fc domain; Bought from R&D Systems; also called Fc-Met; Met ectodomain; not shown: Fc domain derived from a human IgG
Description: Purified DCD-MvDN30.1 and DCD-MvDN30.2 were characterized for their ability to bind the Met receptor. To this end, the present inventors performed ELISA assays using Met ectodomain in solid phase and MvDN30, DCD-MvDN30.1 and DCD-MvDN30.2 in liquid phase.
[…] […] Data were analyzed and fit using Prism software (Graph Pad Software, San Diego, Calif.). Met-Fc chimera is a fusion protein wherein the Fc domain derived from a human IgG is fused in frame with the Met extracellular portion.

T1 sequence (P08581 25-932, change not shown): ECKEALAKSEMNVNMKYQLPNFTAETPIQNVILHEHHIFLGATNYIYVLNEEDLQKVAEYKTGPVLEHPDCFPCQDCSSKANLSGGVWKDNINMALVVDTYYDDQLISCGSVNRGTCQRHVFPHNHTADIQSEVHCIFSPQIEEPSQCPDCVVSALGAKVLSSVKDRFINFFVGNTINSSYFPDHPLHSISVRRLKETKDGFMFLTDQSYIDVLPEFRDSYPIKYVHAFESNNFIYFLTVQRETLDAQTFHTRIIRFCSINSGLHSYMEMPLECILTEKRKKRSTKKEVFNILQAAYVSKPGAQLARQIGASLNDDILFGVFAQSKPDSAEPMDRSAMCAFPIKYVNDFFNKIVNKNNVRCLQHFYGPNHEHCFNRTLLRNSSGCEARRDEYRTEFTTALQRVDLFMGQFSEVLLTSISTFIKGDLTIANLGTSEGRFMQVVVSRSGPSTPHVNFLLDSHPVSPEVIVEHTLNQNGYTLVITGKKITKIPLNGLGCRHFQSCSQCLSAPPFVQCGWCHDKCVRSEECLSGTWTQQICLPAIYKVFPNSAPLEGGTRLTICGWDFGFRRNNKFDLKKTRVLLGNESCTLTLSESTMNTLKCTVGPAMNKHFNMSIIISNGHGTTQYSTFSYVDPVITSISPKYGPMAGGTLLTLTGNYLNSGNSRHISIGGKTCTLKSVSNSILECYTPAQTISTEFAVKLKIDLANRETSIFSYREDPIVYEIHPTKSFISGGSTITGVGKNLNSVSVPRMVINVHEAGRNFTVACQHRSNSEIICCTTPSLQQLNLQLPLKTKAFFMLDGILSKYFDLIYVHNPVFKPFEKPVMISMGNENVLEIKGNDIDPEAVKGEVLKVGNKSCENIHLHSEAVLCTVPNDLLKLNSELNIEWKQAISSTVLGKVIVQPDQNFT

Row | Binder | Kd
1 | B1 | 0.13 nM
2 | B2 | 0.141 nM
3 | B3 | 0.133 nM
